Results from the supplement of paper PMC10724198.
± gives the standard deviation of the averaged measurements.

test system: Saccharomyces cerevisiae; assay: protein stability index of tFT-peptide fusion (C-terminal peptide) (PSI (0-1 scale)); higher = more stable (slower turnover); details: genetic background: wild type; temperature: 30 C
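Further: PSI is a weighted mean of sequencing reads over stability bins, variants kept only with over 10 reads, mCherry proximal and sfGFP distal, peptide attached via GGGS linker.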

VLLLSRPLFPFS and VLLMRSARTAGA are within error of each other in protein stability index: 0.669 ± 0.031 for the first, 0.69 ± 0.021 for the second.

Going from VLLRKLLCPGYV to VLLRRRASSISG, the protein stability index rises from 0.598 ± 0.016 to 0.671 ± 0.043.

First: VLPHFSLSTPSP
Second: VLQEFTFPKVGL
The protein stability index of the first is higher: 0.7493 ± 0.0052 for the first, 0.675 ± 0.015 for the second.

Going from VLSGPQVVWSES to VLSLLGVLFCLF, the protein stability index falls from 0.679 ± 0.017 to 0.634 ± 0.028.

VLSPVFLISLFS and VLTSLVRGVFTG are within error of each other in protein stability index: 0.552 ± 0.016 for the first, 0.632 ± 0.069 for the second.

Going from VLVSVSVPLRGR to VLWIWRGFRGLG, the protein stability index falls from 0.78 ± 0.1 to 0.626 ± 0.011.

Going from VMAVARIEVKMR to VMGYCNWCVIRQ, the protein stability index rises from 0.587 ± 0.024 to 0.694 ± 0.054.

Compared with VMWNLVCLRRSQ, VNEEGCDILVRT is higher in protein stability index: 0.6271 ± 0.0012 for the first, 0.757 ± 0.013 for the second.

VNPAFRTSICHH and VNTISRKIPPIA are within error of each other in protein stability index: 0.584 ± 0.12 for the first, 0.648 ± 0.041 for the second.

First: VNVSLFWFGTYL
Second: VPEVRRTDGRVR
The protein stability index of the first is lower: 0.61 ± 0.054 for the first, 0.74 ± 0.014 for the second.

VPFGPLRPALYL and VPGASSSLSSSP are within error of each other in protein stability index: 0.708 ± 0.018 for the first, 0.667 ± 0.077 for the second.

Compared with VPLPGAAGATLL, VPLPLVPCARIY is lower in protein stability index: 0.773 ± 0.091 for the first, 0.627 ± 0.0093 for the second.

First: VPLYVDLYLSGA
Second: VPNTFVGVLICP
The protein stability index of the first is higher: 0.721 ± 0.043 for the first, 0.607 ± 0.026 for the second.

First: VPPFGPTPLASI
Second: VPPHLLLSLSPP
The protein stability index of the first is higher: 0.797 ± 0.073 for the first, 0.635 ± 0.02 for the second.

VPPRPPLPPRPP and VPPSYDLPLFPF are within error of each other in protein stability index: 0.625 ± 0.027 for the first, 0.632 ± 0.013 for the second.

First: VPSAFLYLVGSL
Second: VPSANAQTPSTC
The protein stability index of the first is lower: 0.591 ± 0.01 for the first, 0.717 ± 0.071 for the second.

VPSGVWGVLGFA and VPSPFIPVSPTL are within error of each other in protein stability index: 0.667 ± 0.048 for the first, 0.669 ± 0.012 for the second.

VPSSCFLLDLPP and VPSSVLIPRPLF are within error of each other in protein stability index: 0.648 ± 0.047 for the first, 0.72 ± 0.081 for the second.

VPVITLGSRISG and VQDFTFLLPLAP are within error of each other in protein stability index: 0.658 ± 0.0088 for the first, 0.692 ± 0.17 for the second.

VQSSLSDFYVSS and VQSVDVLLISSL are within error of each other in protein stability index: 0.707 ± 0.061 for the first, 0.642 ± 0.032 for the second.

Going from VQSWGGRGMVVW to VQTHPFWFPTLL, the protein stability index falls from 0.719 ± 0.036 to 0.573 ± 0.07.

VRARSTSCGIWC and VRARTAFVPLPA are within error of each other in protein stability index: 0.692 ± 0.045 for the first, 0.727 ± 0.097 for the second.

VRATSMWRSRGR and VRDLDMEEISRY are within error of each other in protein stability index: 0.688 ± 0.053 for the first, 0.727 ± 0.05 for the second.

VRDLGSPFIVYR and VRGLGFVSWFFL are within error of each other in protein stability index: 0.64 ± 0.059 for the first, 0.651 ± 0.025 for the second.

VRGRVGYFIVRK and VRGSLGQGNDTA are within error of each other in protein stability index: 0.642 ± 0.044 for the first, 0.706 ± 0.03 for the second.

Compared with VRINNIGKRVNR, VRKGSERKKAGN is lower in protein stability index: 0.706 ± 0.025 for the first, 0.6686 ± 0.0043 for the second.

VRPQHIITSGSC and VRRGGGVGGYGI are within error of each other in protein stability index: 0.739 ± 0.15 for the first, 0.734 ± 0.084 for the second.

First: VRRRANVRVLRD
Second: VRRRKLAKCEVN
The protein stability index of the first is higher: 0.688 ± 0.077 for the first, 0.474 ± 0.058 for the second.

Going from VRRTRGGLRGWS to VRRWAVSSAFVG, the protein stability index falls from 0.6987 ± 0.0053 to 0.628 ± 0.054.

VRWTVAWAVGAT and VRYGQRGTFGLL are within error of each other in protein stability index: 0.689 ± 0.12 for the first, 0.6901 ± 0.0019 for the second.

VSAPLGRFSGLV and VSDMILSATFCM are within error of each other in protein stability index: 0.685 ± 0.036 for the first, 0.643 ± 0.042 for the second.

VSDVIPRSRCVR and VSGCVCAAADVL are within error of each other in protein stability index: 0.6884 ± 0.0024 for the first, 0.696 ± 0.027 for the second.

Compared with VSGCVMIYGRTV, VSGSVVLHTVIP is lower in protein stability index: 0.724 ± 0.027 for the first, 0.658 ± 0.017 for the second.

VSGVLPGALFPL and VSGYGSSQDDVR are within error of each other in protein stability index: 0.684 ± 0.053 for the first, 0.6397 ± 0.0056 for the second.

VSIGGLLGCVLF and VSMSACSPGGMS are within error of each other in protein stability index: 0.692 ± 0.048 for the first, 0.646 ± 0.02 for the second.

VSNKWATANKYG and VSPGLFRSPPHY are within error of each other in protein stability index: 0.644 ± 0.051 for the first, 0.664 ± 0.011 for the second.

VSPLPSPVPLLP and VSPNSFVGRPCF are within error of each other in protein stability index: 0.69 ± 0.076 for the first, 0.717 ± 0.072 for the second.

Going from VSPSPIPSMPVI to VSREWNVSIDVF, the protein stability index falls from 0.71 ± 0.078 to 0.495 ± 0.027.

VSRGGMSGIVCL and VSRGIFSGRGGV are within error of each other in protein stability index: 0.773 ± 0.11 for the first, 0.736 ± 0.018 for the second.

VSSCLHDYSAIY and VSSTFGQDTSKR are within error of each other in protein stability index: 0.744 ± 0.029 for the first, 0.715 ± 0.024 for the second.

VSVVVGLLFVGF and VSWLSTKCWTIL are within error of each other in protein stability index: 0.5 ± 0.065 for the first, 0.563 ± 0.038 for the second.

VSYLLPPPPPPP and VTGDRGGVRGGE are within error of each other in protein stability index: 0.682 ± 0.046 for the first, 0.685 ± 0.012 for the second.

Going from VTHNTLLRTKVV to VTLRLCGQSVVV, the protein stability index rises from 0.518 ± 0.0069 to 0.585 ± 0.0085.

First: VTLWQLANNTLG
Second: VTNVTSETRVLT
The protein stability index of the first is lower: 0.626 ± 0.028 for the first, 0.6816 ± 0.0013 for the second.

VTPLPHPPLPPP and VTPPGFTYVLEV are within error of each other in protein stability index: 0.756 ± 0.089 for the first, 0.619 ± 0.058 for the second.

VVAFSLLSGFLV and VVALHYNYFSRL are within error of each other in protein stability index: 0.636 ± 0.04 for the first, 0.613 ± 0.09 for the second.

VVDSGLFLAASR and VVDWRRAAKREG are within error of each other in protein stability index: 0.643 ± 0.08 for the first, 0.685 ± 0.051 for the second.

VVFLWGVFGGSI and VVGAGGLCNMDV are within error of each other in protein stability index: 0.688 ± 0.055 for the first, 0.635 ± 0.029 for the second.

VVGDGVWCLSVG and VVGRLERRLREQ are within error of each other in protein stability index: 0.721 ± 0.046 for the first, 0.674 ± 0.017 for the second.

Compared with VVLGFGPRFRVV, VVLGLWGLCCGC is lower in protein stability index: 0.584 ± 0.018 for the first, 0.527 ± 0.029 for the second.

VVLVGVVGGMVG and VVRGKRRVRWLR are within error of each other in protein stability index: 0.639 ± 0.018 for the first, 0.625 ± 0.049 for the second.

Going from VVSFGRIGGVGR to VVSIIQDITLIS, the protein stability index rises from 0.675 ± 0.027 to 0.7094 ± 0.0034.

Going from VVTEKLKRAARA to VVVGRWSVLSSV, the protein stability index falls from 0.669 ± 0.021 to 0.522 ± 0.017.

VVVLGVGGVGWW and VVWKRALWGEGL are within error of each other in protein stability index: 0.704 ± 0.019 for the first, 0.791 ± 0.073 for the second.

VWGGYGQFYGWK and VWLGEYGVGCSV are within error of each other in protein stability index: 0.606 ± 0.049 for the first, 0.655 ± 0.048 for the second.

First: VWRVGRARGQMG
Second: VWSVDVSGCVVR
The protein stability index of the first is higher: 0.6953 ± 0.0017 for the first, 0.641 ± 0.031 for the second.

First: VWVWHGAVLMGG
Second: VYASMFRAAWPF
The protein stability index of the first is lower: 0.527 ± 0.017 for the first, 0.746 ± 0.076 for the second.

VYMAGSFSRLFQ and VYSDSCLLRKTT are within error of each other in protein stability index: 0.723 ± 0.034 for the first, 0.695 ± 0.02 for the second.

First: VYTEFWERQGLL
Second: WACGYLGSTILS
The protein stability index of the first is higher: 0.796 ± 0.051 for the first, 0.643 ± 0.067 for the second.

WAGSGCECTGGG and WAGVTLRLRSAV are within error of each other in protein stability index: 0.705 ± 0.0031 for the first, 0.682 ± 0.055 for the second.

WANGEFSLGCGG and WCGWGGVACLLL are within error of each other in protein stability index: 0.712 ± 0.017 for the first, 0.681 ± 0.023 for the second.

WCLNMLLIPSMY and WCPGAGGAVVVV are within error of each other in protein stability index: 0.605 ± 0.021 for the first, 0.658 ± 0.073 for the second.

Compared with WCWVGRFVGLVR, WDEDGIFDAGGA is higher in protein stability index: 0.447 ± 0.11 for the first, 0.6 ± 0.041 for the second.

WDHGDHTAMVSI and WEAPCGGTLVGR are within error of each other in protein stability index: 0.683 ± 0.019 for the first, 0.697 ± 0.048 for the second.

Going from WEWFKWRDHNRY to WFCFGSFILCLL, the protein stability index falls from 0.803 ± 0.037 to 0.492 ± 0.028.

WFLLTSSTSRPP and WGAAGRAGTERH are within error of each other in protein stability index: 0.737 ± 0.059 for the first, 0.682 ± 0.029 for the second.

WGCVGVVGLFSG and WGEKTRKVQGCG are within error of each other in protein stability index: 0.656 ± 0.047 for the first, 0.695 ± 0.066 for the second.

WGGGGGRKVSVG and WGGGGGWSGACL are within error of each other in protein stability index: 0.67 ± 0.082 for the first, 0.6909 ± 0.0059 for the second.

WGGGGLRGGWDG and WGGGGLVVFGWK are within error of each other in protein stability index: 0.738 ± 0.03 for the first, 0.698 ± 0.011 for the second.

WGGGGVRGGMGG and WGGGVLRRRVGA are within error of each other in protein stability index: 0.781 ± 0.043 for the first, 0.752 ± 0.055 for the second.

First: WGGLSRCAGVWL
Second: WGGSGGREPGGS
The protein stability index of the first is lower: 0.632 ± 0.034 for the first, 0.753 ± 0.066 for the second.

Compared with WGGYSLKFRTRR, WGLGGVCAVRGS is lower in protein stability index: 0.705 ± 0.0025 for the first, 0.575 ± 0.094 for the second.

Going from WGLGLLGGCWGV to WGPGGVAWGAWW, the protein stability index rises from 0.679 ± 0.09 to 0.7837 ± 0.0022.

WGPPPPYSPFSL and WGPVPWWFGWMG are within error of each other in protein stability index: 0.713 ± 0.0089 for the first, 0.678 ± 0.027 for the second.

Compared with WGRCLGWAGPAG, WGRCVRGGRPWG is lower in protein stability index: 0.788 ± 0.11 for the first, 0.567 ± 0.021 for the second.

Going from WGRGLESVKGGG to WGTSGAMRGTEG, the protein stability index falls from 0.727 ± 0.018 to 0.683 ± 0.022.

WGVGWGMVEGWR and WGVSVVEGGRSG are within error of each other in protein stability index: 0.701 ± 0.019 for the first, 0.736 ± 0.093 for the second.

WGWGGGRDGCGV and WGWGGVRGGMGG are within error of each other in protein stability index: 0.643 ± 0.1 for the first, 0.796 ± 0.08 for the second.

First: WGWVLVGVGGLV
Second: WHEHGGVGTYFI
The protein stability index of the first is lower: 0.576 ± 0.091 for the first, 0.6743 ± 0.0043 for the second.

WIFHHSKTTLAP and WKGEMRDDGGRR are within error of each other in protein stability index: 0.7158 ± 0.0052 for the first, 0.687 ± 0.041 for the second.
